Holding throughout (assay): cell-based or functional assay
Assay [1] deals with HIV-1 MGRM-F1-013 Env (pseudovirus) (HIV-1).
Assay [2] deals with aMLV envelope protein on pseudovirus (aMLV).
In assay [3] the target is HIV-1 92TH021 envelope protein (Env) on pseudotyped virus (HIV-1 isolate 92TH021).
For assay [4], the target named is HIV-1 93IN905 envelope protein (Env) on pseudotyped virus (HIV-1 isolate 93IN905).
Assay [5] has as its target HIV-1 IAVI_C22 envelope protein (Env) on pseudotyped virus (HIV-1 isolate IAVI C22).
For assay [6], the target named is HIV-1 NL43 envelope protein (Env) on pseudotyped virus (HIV-1 NL43).
In assay [7] the target is HIV-1 APV13 envelope glycoprotein (Env) on pseudovirus (HIV-1).
For assay [8], the target named is HIV-1 Env of isolate MG RM-AG-001 (HIV-1).
Assay [9] has as its target HIV-1 Env of isolate MG RM-AG-005 (HIV-1).
In assay [10] the target is HIV-1 Env of isolate MG RM-AG-006 (HIV-1).
Assay [11] addresses HIV-1 JR-FL Env (pseudovirus) (HIV-1).
In assay [12] the target is HIV-1 JRFL envelope glycoprotein (Env) on pseudovirus (HIV-1).
The target of assay [13] is HIV-1 92UG005 Env (on pseudovirus) (HIV-1).
Assay [14] concerns the target HIV-1 92UG024 Env (on pseudovirus) (HIV-1).
The target in assay [15] is HIV-1 93IN905 Env (on pseudovirus) (HIV-1).
Assay [16] concerns the target HIV-1 APV17 Env (on pseudovirus) (HIV-1).
In assay [17] the target is HIV-1 CMU02 Env (on pseudovirus) (HIV-1).
The target in assay [18] is HIV-1 JRCSF Env (on pseudovirus) (HIV-1) (UniProt P20871).
Assay [19] addresses HIV-1 JRFL Env (on pseudovirus) (HIV-1).
In assay [20] the target is HIV-1 MGRM-D-001 Env (on pseudovirus) (HIV-1).
Assay [21] deals with HIV-1 MGRM-D-018 Env (on pseudovirus) (HIV-1).
The target in assay [22] is HIV-1 NL43 Env (on pseudovirus) (HIV-1).
For assay [23], the target named is HIV-1 envelope glycoprotein (Env) of isolate MGRM-C-014, on pseudovirus (HIV-1).
Assay [24] addresses HIV-1 envelope glycoprotein (Env) of isolate MGRM-C-015, on pseudovirus (HIV-1).
Assay [25] addresses HIV-1 envelope glycoprotein (Env) of isolate MGRM-C-017, on pseudovirus (HIV-1).
In assay [26] the target is HIV-1 envelope glycoprotein (Env) of isolate MGRM-C-019, on pseudovirus (HIV-1).
Assay [27] has as its target HIV-1 envelope glycoprotein (Env) of isolate MGRM-C-020, on pseudovirus (HIV-1).
Assay [28] has as its target HIV-1 envelope glycoprotein (Env) of isolate MGRM-C-024, on pseudovirus (HIV-1).
The target in assay [29] is HIV-1 envelope glycoprotein (Env) of isolate MGRM-C-025, on pseudovirus (HIV-1).
The target in assay [30] is HIV-1 envelope glycoprotein (Env) of isolate MGRM-C-027, on pseudovirus (HIV-1).
The target of assay [31] is HIV-1 Env of isolate MGRM-D-024 (HIV-1).
Assay [32] concerns the target HIV-1 Env of isolate MGRM-D-026 (HIV-1).
The target in assay [33] is HIV-1 Env of isolate MGRM-D-028 (HIV-1).
Assay [34] has as its target HIV-1 Env of isolate MGRM-F1-012 (HIV-1).

PGT-141 (4964_G22; 4993_K13) (antibody), sequence (VH): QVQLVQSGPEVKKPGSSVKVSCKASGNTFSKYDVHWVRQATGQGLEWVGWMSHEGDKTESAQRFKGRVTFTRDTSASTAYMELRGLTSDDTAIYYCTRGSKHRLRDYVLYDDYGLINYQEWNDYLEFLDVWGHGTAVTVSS
PGT-141 (4964_G22; 4993_K13) (antibody), sequence (VL): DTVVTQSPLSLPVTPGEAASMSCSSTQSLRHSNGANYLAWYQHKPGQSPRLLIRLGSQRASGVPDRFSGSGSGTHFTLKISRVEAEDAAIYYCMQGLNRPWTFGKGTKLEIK
PGT-142 (4995_E20) (antibody), sequence (VH): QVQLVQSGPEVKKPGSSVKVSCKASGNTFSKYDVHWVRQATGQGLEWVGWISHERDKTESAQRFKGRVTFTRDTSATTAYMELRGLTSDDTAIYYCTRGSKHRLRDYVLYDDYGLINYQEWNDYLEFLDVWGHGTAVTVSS
PGT-143 (4980_N08) (antibody), sequence (VH): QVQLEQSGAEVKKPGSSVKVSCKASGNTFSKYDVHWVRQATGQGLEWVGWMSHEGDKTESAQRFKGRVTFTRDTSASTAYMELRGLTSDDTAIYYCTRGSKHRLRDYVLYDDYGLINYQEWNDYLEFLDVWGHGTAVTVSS
PGT-143 (4980_N08) (antibody), sequence (VL): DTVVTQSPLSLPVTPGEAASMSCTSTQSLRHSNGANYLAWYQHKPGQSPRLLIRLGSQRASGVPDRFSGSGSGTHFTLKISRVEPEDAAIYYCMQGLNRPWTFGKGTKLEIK
1443_C16 (PG16) (TCN-116) (antibody), sequence (VH): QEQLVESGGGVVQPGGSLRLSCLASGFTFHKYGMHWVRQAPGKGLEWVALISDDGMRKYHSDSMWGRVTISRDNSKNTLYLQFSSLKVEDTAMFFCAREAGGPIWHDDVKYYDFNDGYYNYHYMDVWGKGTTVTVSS
1443_C16 (PG16) (TCN-116) (antibody), sequence (VL): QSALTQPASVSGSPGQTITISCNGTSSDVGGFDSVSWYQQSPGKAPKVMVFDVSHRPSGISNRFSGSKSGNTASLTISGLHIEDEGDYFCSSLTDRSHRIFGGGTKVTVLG

2F5 (antibody) yielded an IC50 (µg/ml), pseudovirus neutralization in assay [1] of 4.57 µg/mL. In [2], this substance showed an IC90 (pseudovirus neutralization) greater than 50 mg/L.

The substance 2G12 (antibody) gave an IC50 (µg/ml), pseudovirus neutralization in [1] greater than 50 µg/mL. Also, the IC90 (pseudovirus neutralization) in assay [2] was greater than 50 mg/L.

As to 4E10 (antibody), in assay [2], the IC90 (pseudovirus neutralization) was greater than 50 mg/L.

Take 1443_C16 (PG16) (TCN-116) (antibody): the IC50, pseudovirus neutralization, 1 hour Virus/Ab Incubation in assay [3] is 0.136 mg/L; in assay [4], 0.33 mg/L; in assay [5], 0.114 mg/L; in assay [6], less than 0.0025 mg/L. In addition, the IC50, pseudovirus neutralization, 18 hour Virus/Ab Incubation amounted to 0.0435 mg/L in [3], 0.255 mg/L in assay [4], 0.106 mg/L in [5] and 4.99 mg/L in [6]. This substance returned an IC90 (pseudovirus neutralization) in assay [2] greater than 50 mg/L.

For 1495_C14 (PGC14) (antibody), the IC50, pseudovirus neutralization, 1 hour Virus/Ab Incubation in assay [3] was greater than 50 mg/L; in [4], greater than 50 mg/L; in assay [5], greater than 50 mg/L; in assay [6], 0.35 mg/L. Further, the IC50, pseudovirus neutralization, 18 hour Virus/Ab Incubation was greater than 50 mg/L in assay [3], 0.146 mg/L in assay [4], 13.4 mg/L in assay [5] and 0.15 mg/L in [6]. This substance also returned an IC50 (µg/ml), pseudovirus neutralization in assay [1] of 6 µg/mL.

Take 4858_P08 (PGT-123) (antibody): in assay [7], the IC50 (ug/ml), neutralizing activity was found to be 0.222 µg/mL; the IC50, pseudovirus neutralization was 0.222 mg/L; the IC80, pseudovirus neutralization was found to be 0.879 mg/L; the IC90 (pseudovirus neutralization) worked out at 1.87 mg/L. This substance also showed an IC95, pseudovirus neutralization in assay [7] of 3.5 mg/L. In [8], the neutralization IC50 was 2.51 mg/L. For the same substance, the neutralization IC50 in assay [9] was 0.149 mg/L. The substance further returned a neutralization IC50 in assay [10] of 0.014 mg/L. In assay [11], the IC50, pseudovirus neutralization is 0.014 mg/L. In [12], this substance returned an IC50 (ug/ml), neutralizing activity of 0.0283 µg/mL; an IC50, pseudovirus neutralization of 0.0283 mg/L; an IC80, pseudovirus neutralization of 0.0904 mg/L; an IC90 (pseudovirus neutralization) of 0.178 mg/L. The substance further displayed an IC95, pseudovirus neutralization in assay [12] of 0.332 mg/L.

Turning to 4877_D15 (PGT-122) (antibody), the IC50 (ug/ml), neutralizing activity came out at 0.992 µg/mL in assay [7] and 0.0471 µg/mL in assay [12]. The values for the neutralization IC50 in assay [8], in [9] and in [10] were 14.5 mg/L, 33.9 mg/L and 0.028 mg/L, respectively. The same substance yielded an IC50, pseudovirus neutralization in assay [11] of 0.026 mg/L.

As to 5123_A06 (PGT-125) (antibody), in [7], the IC50 (ug/ml), neutralizing activity was found to be 0.0128 µg/mL; the neutralization IC50 came to 0.0128 mg/L; the neutralization IC80 was found to be 0.0414 mg/L; the neutralization IC90 came to 0.0821 mg/L. In assay [7], this substance came in with a neutralization IC95 of 0.154 mg/L. In assay [8], this substance showed a neutralization IC50 greater than 50 mg/L. This substance had a neutralization IC50 in assay [9] greater than 50 mg/L. The substance also displayed a neutralization IC50 in [10] of 0.008 mg/L. In addition, in assay [11], the IC50, pseudovirus neutralization was 0.009 mg/L. In assay [12], this substance returned an IC50 (ug/ml), neutralizing activity of 0.0156 µg/mL; a neutralization IC50 of 0.0156 mg/L; a neutralization IC80 of 0.0462 mg/L; a neutralization IC90 of 0.0873 mg/L. Also, in [12], the neutralization IC95 amounted to 0.157 mg/L.

For 5141_B17 (PGT-126) (antibody), the results for the IC50 (ug/ml), neutralizing activity in [7] and in assay [12] were 0.012 µg/mL and 0.014 µg/mL, respectively. The neutralization IC50 in assay [8] is greater than 50 mg/L; in assay [9] it was 1.21 mg/L; in assay [10] it was 0.01 mg/L. Moreover, the IC50, pseudovirus neutralization in assay [11] was 0.014 mg/L.

For the substance 5145_B14 (PGT-127) (antibody), the figures for the neutralization IC50 in assay [8], in assay [9] and in assay [10] were greater than 50 mg/L, greater than 50 mg/L and 0.021 mg/L, respectively. In addition, in assay [11], the IC50, pseudovirus neutralization amounted to 0.029 mg/L.

In the case of 5147_N06 (PGT-130) (antibody), the figures for the IC50 (ug/ml), neutralizing activity in assay [7] and in assay [12] were 0.0345 µg/mL and 0.0346 µg/mL, respectively.

On to PGT-141 (4964_G22; 4993_K13) (antibody), for which the IC50 (ug/ml), pseudovirus neutralization in assay [13] is greater than 10 µg/mL; in [14], greater than 10 µg/mL; in assay [15], 0.0016 µg/mL; in assay [16], 0.616 µg/mL; in [17], greater than 10 µg/mL; in [18], 0.0047 µg/mL. The IC50 (ug/ml), pseudovirus neutralization in assay [19] was greater than 10 µg/mL; in assay [20], greater than 10 µg/mL; in assay [21] it was greater than 10 µg/mL; in assay [22] it was 0.856 µg/mL. The IC50, pseudovirus neutralization in assay [23] was found to be 11.8 mg/L; in assay [24], 0.033 mg/L; in assay [25] it was 4.02 mg/L; in assay [26], 0.008 mg/L; in [27], 1.34 mg/L; in [28], 0.101 mg/L. Besides, the IC50, pseudovirus neutralization in assay [29] amounted to 0.247 mg/L; in [30], 3.27 mg/L.

For the substance PGT-142 (4995_E20) (antibody), the IC50 (ug/ml), pseudovirus neutralization in [13] is greater than 10 µg/mL; in assay [14] it was greater than 10 µg/mL; in assay [15], 0.0017 µg/mL; in assay [16], 0.393 µg/mL; in assay [17], greater than 10 µg/mL; in [18], 0.0085 µg/mL. Moreover, the IC50 (ug/ml), pseudovirus neutralization was greater than 10 µg/mL in assay [19], greater than 10 µg/mL in assay [20], greater than 10 µg/mL in assay [21] and 0.712 µg/mL in assay [22]. For the same substance, the IC50, pseudovirus neutralization in assay [23] stood at 6.02 mg/L; in [24] it was 0.038 mg/L; in assay [25], 1.11 mg/L; in assay [26] it was 0.003 mg/L; in assay [27] it was 0.446 mg/L; in assay [28], 0.03 mg/L. Also, the IC50, pseudovirus neutralization in assay [29] turned out to be 0.183 mg/L; in assay [30] it was 0.792 mg/L.

With PGT-143 (4980_N08) (antibody), the IC50 (ug/ml), pseudovirus neutralization was greater than 10 µg/mL in assay [13]; greater than 10 µg/mL in [14]; 0.0021 µg/mL in assay [15]; 0.618 µg/mL in [16]; greater than 10 µg/mL in [17]; 0.0064 µg/mL in [18]. For the same substance, the IC50 (ug/ml), pseudovirus neutralization in [19] is greater than 10 µg/mL; in assay [20], greater than 10 µg/mL; in assay [21] it was greater than 10 µg/mL; in assay [22], 0.585 µg/mL. The IC50, pseudovirus neutralization in [23] was found to be 8.81 mg/L; in assay [24], 0.085 mg/L; in [25] it was 5.17 mg/L; in assay [26], 0.004 mg/L; in assay [27] it was 0.797 mg/L; in assay [28] it was 0.05 mg/L. Further, the IC50, pseudovirus neutralization in assay [29] came out at 0.336 mg/L; in assay [30], 0.598 mg/L.

Regarding VRC01 (antibody), the IC50, pseudovirus neutralization in assay [31] is 0.366 mg/L; in assay [32], 0.435 mg/L; in assay [33], 0.377 mg/L; in assay [34] it was 0.488 mg/L; in assay [23], greater than 50 mg/L; in assay [24] it was 1.57 mg/L. Also, the IC50, pseudovirus neutralization in [25] came to 0.366 mg/L; in [26], 1.13 mg/L; in [27], 0.396 mg/L; in [28] it was 3.4 mg/L; in assay [29], 2.36 mg/L; in assay [30] it was 0.125 mg/L.

For b12 (antibody), the IC50 (µg/ml), pseudovirus neutralization in assay [1] was greater than 50 µg/mL. This substance also showed an IC90 (pseudovirus neutralization) in assay [2] greater than 50 mg/L.

These data come from patent US20200024330A1.
